What all share (test): purified protein
The subject of series [1] is CC(=O)Oc1ccc([N+](=O)[O-])cc1. Particulars: 20 mM Tris-HCl pH 8.0, RT, 40 nM enzyme.
Series [2] relates to CCCCCCCC(=O)Oc1ccc([N+](=O)[O-])cc1. Particulars: 20 mM Tris-HCl pH 8.0, RT, 40 nM enzyme.
For series [3], the system named is O=C(Cc1cccs1)N[C@@H]1C(=O)N2C(C(=O)O)=C(/C=C/c3ccc([N+](=O)[O-])cc3[N+](=O)[O-])CS[C@H]12. Conditions: 20 mM Tris-HCl pH 8.0, RT, 15 μM enzyme.

Usually Km stands for the substrate concentration at which the rate is half of its maximum. By kcat is commonly meant the number of substrate molecules converted per active site and unit of time at saturation. Regarding CcEstA (Caulobacter vibrioides NA1000), the Km is 51.9 ± 2.44 µM in series [1], 43.4 ± 3.15 µM in series [2] and 1348 µM in series [3]. For the same substance, the kcat in series [1] came to 15.2 ± 2.19 s⁻¹; in series [2] it was 4.03 ± 0.29 s⁻¹; in series [3] it was 0.00807 s⁻¹.

For the origin of these results see publication PMC5131357, “Biochemical and Structural Analysis of a Novel Esterase from Caulobacter crescentus related to Penicillin-Binding Protein (PBP)” (Scientific Reports, 2016).
